Assay results: IntAct's records for PubMed 26688217

B1: SUN domain-containing protein 2 (Mus musculus), Q8BJS4-3 (parent)
chain: MSRRSQRLTRYSQDDNDGGSSSSGASSVAGSQGTVFKDSPLRTLKRKSSNMKHLSPAPQLGPSSDSHTSYYSESVVRESYIGSPRAVSLARSALLDDHLHSEPYWSGDLRGRRRRGTGGSESSKANGLTAESKASEDFFGSSSGYSSEDDLAGRLFGLLYWWIGTTWYRLTTAASLLDVFVLTRSRHFSLNLKSFLWFLLLLLLLTGLTYGAWHFYPLGLQTLQPAVVSWWAAKESRKQPEVWESRDASQHFQAEQRVLSRVHSLERRLEALAADFSSNWQKEAIRLERLELRQGAAGHGGGSSLSHEDALSLLEGLVSRREATLKEDLRRDTVAHIQEELATLRAEHHQDSEDLFKKIVQASQESEARVQQLKTEWKSMTQEAFQESSVKELGRLEAQLASLRQELAALTLKQNSVADEVGLLPQKIQAARADVESQFPDWIRQFLLGDRGARSGLLQRDEMHAQLQELENKILTKMAEMQGKSAREAAASLGQILQKEGIVGVTEEQVHRIVKQALQRYSEDRIGMVDYALESGGASVISTRCSETYETKTALLSLFGIPLWYHSQSPRVILQPDVHPGNCWAFQGPQGFAVVRLSARIRPTAVTLEHVPKALSPNSTISSAPKDFAIFGFDEDLQQEGTLLGTFAYDQDGEPIQTFYFQASKMATYQVVELRILTNWGHPEYTCIYRFRVHGEPAH

Variants of: B1
Settings: with Syne2, Q6ZWQ0-1

| Variant | effect of a mutation on the interaction |
| --- | --- |
| L400A;L403A | disrupting interaction strength |
